Data on 13 molecules can be found in patent US20230263916A1 (NANOMAB TECHNOLOGY, published 2023).

Residue numbers refer to the chain shown, from its start.

B1: Nanobody No. 9 (VHH)
VHH: QVQLQESGGGSVQAGETLRLSCTASGFTFDDSDMGWYRQAPGSECELVSTISSDGNTYYSNSVKGRFTISQDNAKNTVYLQMNSLKPEDTAVYYCAADDQHYELGTCEALDYWGRGTQVTVSS
notes: camel VHH from pMECs phage display vector; also called Antibody no; not shown: tags (HA, His) implied by anti-HA detection and nickel column
B2: Nanobody No. 10 (VHH)
VHH: B1 VHH with R19K, D33T, G35A, S43N, E46K, N56S, S60A, N61D, H101N
notes: camel VHH from pMECs phage display vector; also called Antibody no; 10; not shown: tags (HA, His) implied by anti-HA detection and nickel column
B3: Nanobody No. 17 (VHH)
VHH: QVQLQESGGGSVQAGGSLRLSCTASGFTFDDSDMGWYRQAPGNECELVSTISSDGSTYYADSVKGRFTISQDNAKNTVYLQMNSLKPEDTAVYYCADVQIPYGLGTCESLDYWGRGTQVTVSS
notes: camel VHH from pMECs phage display vector; also called Antibody no; 17; not shown: tags (HA, His) implied by anti-HA detection and nickel column
B4: Nanobody No. 23 (VHH)
VHH: QVQLQESGGGSVQAGGSLKLSCSASGFTFDDTDMGWYRQAPGNECELVSTISSDGTTYYTDSVKGRFTISQDNAKNTVYLQMNSLKPEDTAVYYCAAINSGYELGTCESLDYWGRGTQVTVSS
notes: camel VHH from pMECs phage display vector; also called Antibody no; 23; not shown: tags (HA, His) implied by anti-HA detection and nickel column
B5: Nanobody No. 13 (VHH)
VHH: QVQLQESGGGSVQAGETLRLSCTASGFTFDDSDMGWYRQAPGNECELVSTISADGSTFYADSVKGRFTISQDNAKNTVYLQMNSLKPEDTAVYYCASPENEYELGTCEALDYWGQGTQVTVSS
notes: camel VHH from pMECs phage display vector; also called Antibody no; 13; not shown: tags (HA, His) implied by anti-HA detection and nickel column
B6: Nanobody No. 26 (VHH)
VHH: QVQLQESGGGSVQAGETLRLSCTASGFTFDDSDMGWYRQAPGNECELVSSISSDGSTYYADSVKGRFTISQDNAKNTVYLQMNSLKPEDTGVYYCAAEGHRYELGTCAALDYWGRGTQVTVSS
notes: camel VHH from pMECs phage display vector; also called Antibody no; 26; not shown: tags (HA, His) implied by anti-HA detection and nickel column
B7: Nanobody No. 22 (VHH)
VHH: B4 VHH with K19R, S23T, T32S, T50R, S53R, T60A, A97D
notes: camel VHH from pMECs phage display vector; also called Antibody no; 22; not shown: tags (HA, His) implied by anti-HA detection and nickel column
B8: Nanobody No. 35 (VHH)
VHH: QVQLQESGGGLVQPGGSLRLSCAASGFTFDDVDMGWYRQAPGNECELVSTISSDGSTYYADSVKGRFTISQDNAKNTVYLQMNSLKPEDTAMYYCAAARYSDYEGMCGYWSQGTQVTVSS
notes: also called 35; not shown: tags (HA, His) implied by anti-HA detection and nickel column
B9: Nanobody No. 36 (VHH)
VHH: B8 VHH with L11S, P14A, G16E, A23R, A24T, T28S
notes: also called 36; not shown: tags (HA, His) implied by anti-HA detection and nickel column
B10: Nanobody No. 37 (VHH)
VHH: B8 VHH with L11S, P14A, G16E, S17T, A23T, A24V, V32A, E44Q, S56I, I69V
notes: also called 37; not shown: tags (HA, His) implied by anti-HA detection and nickel column
B11: Nanobody No. 39 (VHH)
VHH: QVQLQESGGGSVQAGGSLRLSCAASGYTYTGYCMGWFRQAPGKEREGVATIDSDGDTSYADSVKGRFTISKDNAKNTLYLQMNSLKPEDTAMYYCAADFRRWHLCSSSFREDGMDYWGKGTQVTVSS
notes: also called 39; not shown: tags (HA, His) implied by anti-HA detection and nickel column
B12: Nanobody No. 40 (VHH)
VHH: B11 VHH with G16E, S17T, P41T, S58T, A74G, R110Q, D112Y, G113D
notes: also called 40; not shown: tags (HA, His) implied by anti-HA detection and nickel column
B13: Nanobody No. 38 (VHH)
VHH: QVQLQESGGGSVQAGGSLRLSCAASGFTYTGYCMGWFRQAPGKEREGVATVDSDGDTSYADSVKGRFTISKDNAKNTLYLQMNSLKPEDTAMYYCAADFSRWHLCSTSLATLGYWGQGTQVTVSS
notes: also called 38; not shown: tags (HA, His) implied by anti-HA detection and nickel column

The target of one assay is T1, human HER2 antigen protein (human, UniProt P04626 23-652).
T1 construct: Antigen coated in the ELISA of Embodiment 5 and immobilised on the CM-5 chip in Embodiment 7; Embodiment 7 says only 'antigen protein Her2' without species or construct; also called antigen protein Her2
The experiment in a line: Biacore, Her2 immobilised on CM-5 chip. The procedure:
(1) Immobilization: the stationary phase antigen protein Her2 was immobilized on the surface of CM-5 sensor chip by carboxyl amino reaction.
(3) Chip regeneration: when next antibody was determined, the chip was washed with 10 mM Glycine.
By Kd is commonly meant the constant that tells how readily two partners part at equilibrium. As a reminder, the koff is a measure of how fast the partners let go of each other. A low value points to a long-lived complex. One may read the kon as the second-order rate constant of association. For the molecule B1, binding was put at a Kd of 3.6 nM, the dissociation rate constant (koff) was found to be 0.00397 s⁻¹ and the on-rate (kon) was 1.11e+06 M⁻¹ s⁻¹.
Take B2: the Kd was 6.47 nM, the off-rate (koff) was 0.00457 s⁻¹ and the association rate constant (kon) was determined as 706000 M⁻¹ s⁻¹.
As to B3, binding was put at a Kd of 6.68 nM, the koff amounted to 0.00421 s⁻¹ and the kon came out at 631000 M⁻¹ s⁻¹.
The corresponding values for B4 are 3.73 nM, 0.00255 s⁻¹ and 682000 M⁻¹ s⁻¹.
For B5, in that order: 1.18 nM, 0.0015 s⁻¹ and 1.27e+06 M⁻¹ s⁻¹.
In turn, B6 yielded a Kd of 1.31 nM, an off-rate (koff) of 0.00112 s⁻¹ and a kon of 857000 M⁻¹ s⁻¹.
B7 returned a Kd of 1.98 nM, a koff of 0.0019 s⁻¹ and an on-rate (kon) of 957000 M⁻¹ s⁻¹.

Another assay addresses T2, human Her2 (ECD)-Fc protein (human, UniProt P04626 23-652).
T2 construct: extracellular domain; Made in HEK293F cells; also called hHer2 (ECD)-Fc antigen; Her2 (ECD)-Fc antigen; not shown: TEV restriction site at the C-terminal of hHer2 (ECD); IgG1 Fc of the pFUSE-IgG1 vector
The assay is described as follows: PE-ELISA, crude extract on antigen-coated plate. The procedure: (§1) (1) 10 μg Her2 (ECD)-Fc antigen (10 μg Fc in NaHCO₃ as control) dissolved in 100 mM NaHCO₃ (pH 8.2) was coupled to a NUNC plate then incubated at 4° C. overnight.
(§2) (5) The unbound antibody was washed off with PBST.
(§3) (6) When the OD value of the sample was over 3 times of the OD value of the control sample (Ratio+/−>3), the tested sample was determined to be a positive clone. […] Then all the positive clones were transferred to LA medium for plasmid extraction and sequencing.
(In general: ELISA stands for enzyme-linked immunosorbent assay.)
B1: the “A405+” value was determined as 2.15 A405.
The same measure, in the same setting: the value for B2 was 1.63 A405; that for B8 was 1.99 A405.
Still for that read-out and setting: the value for B9 was 2.22 A405; that for B10 was 2.1 A405.
Still for that read-out and setting: under B11 stands 1.86 A405; under B12, 1.57 A405; under B13, 2.14 A405.
For the molecule B3, the “A405+” value turned out to be 1.88 A405.
The same measure, in the same setting: the value for B4 was 1.77 A405.
As to B5, the “A405+” value is 2.24 A405.
On the same count and under the same terms, under B6 stands 1.9 A405; under B7, 1.78 A405.

The target of a further assay is T2, human Her2 (ECD)-Fc protein. The experiment in a line: PE-ELISA, A405 of antigen well over control well. The procedure:
as §1, §2, §3
For the molecule B1, the “Ratio(+/-)” value came to 24.3.
Still for that read-out and setting: the value for B2 was 22.4.
The same measure, in the same setting: under B8 stands 21.
Still for that read-out and setting: the value for B9 was 21.6; that for B10 was 19.6; that for B11 was 17.8.
For B12, the “Ratio(+/-)” value came out at 19.1.
Same read-out and setting: the value for B13 was 21.8; that for B3 was 23.8.
For B4, the “Ratio(+/-)” value was determined as 17.1.
On the same count and under the same terms, the value for B5 was 25.1.
On the same count and under the same terms, the value for B6 was 21.1.
Consider B7, for which the “Ratio(+/-)” value turned out to be 21.3.

Another assay deals with T3, Her2 on cells (BT474, high expression; MDA-MB-231, low expression) (UniProt P04626 23-1255, limits assumed).
T3 construct: whole, on cells; Endogenous Her2 of tumour cell lines
The assay is described as follows: flow cytometry on BT474 cells (high Her2), anti-HA Alexa Fluor488. The procedure: (§4) (3) Cells were divided into 96-well plates after washing, where number of cells per sample was 3×10⁵. The dilute nanobodies were then added to each well, mixed and placed at 4° C. for 20 min.
(§5) (4) Cells were washed twice with PBS and resuspended with 100 uL PBS. […] Mouse anti-HA Alexa Fluor488 labeled antibody was then added to each sample, mixed and placed at 4° C. for 20 min.
(§6) (5) Cells were washed twice with PBS and then resuspended to the flow tube with 300 uL PBS. Samples were kept on ice in dark condition. Detection was held via machine.
(In general: A flow cytometer gives signals particle by particle.)
The molecule B1 returned a positive rate of 99.8%.
The molecule B2 yielded a positive rate of 99.7%.
With B3, the positive rate is 99.9%.
Turning to B4, the positive rate was determined as 99.9%.
B5 had a positive rate of 99.9%.
Same read-out and setting: under B6 stands 99.9%; under B7, 99.7%.

A further assay concerns the target T3, Her2 on cells (BT474, high expression; …). The experiment in a line: flow cytometry on MDA-MB-231 cells (low Her2), anti-HA Alexa Fluor488. The procedure: as §4, §5, §6
The molecule B1 gave a positive rate of 9.5%.
The molecule B2 had a positive rate of 10.6%.
Molecule B3 returned a positive rate of 12.3%.
The molecule B4 gave a positive rate of 11.5%.
Still for that read-out and setting: under B5 stands 14.2%.
Still for that read-out and setting: the value for B6 was 16.7%; that for B7 was 5.8%.
